According to paper PMC3694778:

Experiments:
[1] = tested on: CLOCK bHLH-PAS-AB;BMAL1 bHLH-PAS-AB (mouse;mouse); assay: fluorescence anisotropy competition; details: not given in the material (Supplementary Methods not held)
[2] = tested on: CLOCK bHLH-PAS-AB;BMAL1 bHLH-PAS-AB (mouse;mouse); assay: fluorescence anisotropy; details: not given in the material (Supplementary Methods not held)

Substance | Kd [1] [nM] | Kd [2] [nM]
mPer1 E1-box DNA 18-mer, unlabeled | 9 | –
mPer2 E2-box DNA, fluorescein labeled | – | 59
mPer2 E2-box DNA 18-mer, unlabeled | 13 | –
